Source: article PMC9888390, “A non-neutralizing glycoprotein B monoclonal antibody protects against herpes simplex virus disease in mice” (The Journal of Clinical Investigation, 2023)

What was measured:
[1] = target: T1, Recombinant HSV-1 glycoprotein B, soluble ectodomain (Human herpesvirus 1, strain  …, UniProt P06437); assay: Luminex bead binding assay; HSV-1 gB coupled to carboxylated beads; rAbs serially diluted from 2 μg/mL (3-fold, 11 dilutions) in PBS with 1% BSA, 0.05% NaN3, 0.05% Tween-20 and 1% milk, 2 hours; detected with PE-conjugated goat anti-mouse IgG; conditions: both partners purified
T1 construct: glycoprotein B of herpes simplex virus 1, soluble ectodomain, postfusion state; The printed limits 31-70 are perhaps a misprint of 31-730 (surmised). 'epo' in the name is perhaps a foreign signal peptide (surmised); also called gB; gB-1; not shown: His tag, C-terminal, kept

[2] = target: T1, Recombinant HSV-1 glycoprotein B, …; assay: cryo-EM structure; gB 2.5 mg/mL with a 2-fold molar excess of Fab (3 mg/mL), 0.08% n-octyl-β-D-glucoside; Titan Krios 300 keV, K3 detector; gB in the postfusion state; conditions: both partners purified
[3] = target: glycoprotein B of HSV-2(G), from infected HaCaT cells (Human herpesvirus 2, strain G, UniProt A0A0D4CHI5, strain); assay: affinity purification with mass spectrometry; RIPA lysate of HSV-2(G)-infected HaCaT cells incubated overnight at 4°C with 1 mg/mL mAb; Protein A resin; elution with glycine-HCl pH 2.5-3.0; SDS-PAGE, in-gel trypsin digestion, nano-LC-MS/MS; conditions: one partner purified
[4] = target: T2, glycoprotein B of HSV-2(4674), from infected Vero cells (Human herpesvirus 2, clinical isolate …, UniProt P08666, strain); assay: Western blot; HSV-2(4674)-infected or uninfected Vero cell lysates (10 μg per lane) separated by PAGE with β-mercaptoethanol, blotted and probed with BMPC-23 (10 μg/mL) overnight; anti-mouse IgG-HRP; conditions: one partner purified
T2 construct: glycoprotein B of herpes simplex virus 2, clinical isolate 4674, as made in infected cells; Seen as a band of about 100 kDa or about 116 kDa on a reducing gel; also called gB; monomeric gB; source: Vero cells infected with HSV-2(4674), in lysate

[5] = target: T1, Recombinant HSV-1 glycoprotein B, …; assay: BLI; OctetRed96; gB (C-terminal His tag) captured on anti-His (HIS2) biosensors at 1 ng/μL, dipped into increasing concentrations of BMPC-23 Fab; 1:1 binding model; apparent KD derived from on and off rates; conditions: both partners purified

B1: HSV010-13 recombinant mouse IgG (antibody, V domains shown)
VH: QVQLQQPGAELVKPGASVKLSCKASGYTFTSYWIHWVKQGPGQGLEWIGMIHPNSGITHYNEKFKTKATLTVDKSSSTAYMQLSSLTSEDSAVCYCARGSSSGSAWFAYWGQGTLVTVSA
VL: DIQMTQSSSYLSESLGGRVTITCKASDHINNWLAWYQQKPGNAPRLLISGATSLETGVPSRFSGSGSGKDYTLSITSLQTEDVATYYCQQYWSSPLTFGAGTKLELK
notes: VH of HSV010-13 (germinal center B cell of a ΔgD-2-vaccinated C57BL/6 mouse); VL of HSV010-13; Member of a clonal lineage of five (HSV010-6, -9, -13, -14, -15); source: Expi293F, transient transfection, purified from culture supernatant (protein G spin columns); copies: 2 + 2
binding result [1]: binds

B2: HSV010-13 Fab (Fab, V domains shown)
VH: B1 VH
VL: B1 VL
notes: Fab part of the heavy chain of m5; as the light chain of m5; The methods tell how the Fab was made only for BMPC-23; also called Fab fragment of HSV010-13
binding result [2]: binds

B3: BMPC-23 recombinant mouse IgG (antibody, V domains shown)
VH: QVQLQQSGPELVKPGASVKLSCKASGYSFTTYDINWVKERPGQGLEWIGWIYPREGSTNYNEKFRGKATLTADTSSSTAYMELHSLTSEDSAVYFCATYGSSRYYTMDYWGQGTSVTVSS
VL: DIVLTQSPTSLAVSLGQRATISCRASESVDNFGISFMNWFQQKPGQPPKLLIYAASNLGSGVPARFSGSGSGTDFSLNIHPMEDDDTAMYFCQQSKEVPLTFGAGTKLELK
notes: VH of BMPC-23 (bone marrow plasmacyte of a ΔgD-2-vaccinated C57BL/6 mouse); mouse IgG1 or IgG2c constant region from the expression vector; VL of BMPC-23; Cloned into both mouse IgG1 and IgG2c vectors; also called BMPC-23 (IgG2c); mIgG2c BMPC-23; source: Expi293F, transient transfection, purified from culture supernatant (protein G spin columns); copies: 2 + 2
binding result [3]: binds
binding result [4]: binds
binding result [1]: binds

B4: BMPC-23 Fab (Fab, V domains shown)
VH: B3 VH
VL: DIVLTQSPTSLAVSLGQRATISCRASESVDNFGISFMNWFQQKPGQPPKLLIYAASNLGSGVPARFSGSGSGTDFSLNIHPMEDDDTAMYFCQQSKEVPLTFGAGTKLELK
notes: as the heavy chain of m1 up to the papain cut; as the light chain of m1; also called Fab of BMPC-23; Fab portion of BMPC-23; source: from intact BMPC-23 (Expi293F) by cleavage with immobilized papain; purified by subtractive protein A chromatography
Kd [5]: 10 nM
